Measured values taken from patent publication US20110217317A1 (published 2011).
Residue numbers refer to the chain shown, from its start.

T1: Rhesus D antigen (human, UniProt Q02161 2-417)
T1 construct: whole, on cells; Presented on RhD-positive erythrocytes in all assays; also called RhD; RhD antigen
T1 sequence (looked up): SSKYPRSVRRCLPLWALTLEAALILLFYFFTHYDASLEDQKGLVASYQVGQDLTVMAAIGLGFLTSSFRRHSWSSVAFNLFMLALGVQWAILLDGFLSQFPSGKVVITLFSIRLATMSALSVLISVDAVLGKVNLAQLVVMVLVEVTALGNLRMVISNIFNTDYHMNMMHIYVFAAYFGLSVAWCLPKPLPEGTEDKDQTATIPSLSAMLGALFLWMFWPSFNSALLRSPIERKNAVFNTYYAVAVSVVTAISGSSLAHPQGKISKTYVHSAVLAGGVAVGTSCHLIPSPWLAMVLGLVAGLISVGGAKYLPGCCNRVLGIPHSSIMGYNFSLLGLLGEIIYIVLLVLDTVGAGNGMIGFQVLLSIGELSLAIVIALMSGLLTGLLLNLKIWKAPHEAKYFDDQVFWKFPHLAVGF

B1: RhD204.128A03 (Fab, V domains shown)
VH: EVQLVESGGGVVQPGRSLRLSCAASGFSFSNYGMHWVRQAPGKGLEWVAVISYDGSEKYYADSVKGRFTISRDNSKKALYLQMNSLRAEDTAMYYCKNKVGATRRAVVAFDIWGQGTTVTVSS
VL: LSSELTQDPAVSVALGQTVRITCQGDSLRSYYANWYQQKPGQAPLSVIYGKNNRPSGIPDRFSGSNSGNTAFLTITGTQAEDEADYYCNSRDSSGNYRELFGGGTKLTVLG
notes: Tested as Fab (periplasmic extract); lambda clone
B2: RhD199.164E03 (Fab, V domains shown)
VH: QVQLVESGGGVVQPGRSLRLSCAASGFTFSSYGMHWVRQAPGKGLEWVAVIWYDGSNKYYADSVKGRFTISRDNSKNTLHLQMNSLRAEDTAVYYCAREVGFGSGWSRYYYGMDVWGQGTTVTVSS
VL: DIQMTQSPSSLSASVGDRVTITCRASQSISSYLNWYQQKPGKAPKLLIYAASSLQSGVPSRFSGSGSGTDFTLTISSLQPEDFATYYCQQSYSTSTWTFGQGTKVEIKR
notes: Tested as Fab (periplasmic extract)
B3: RhD200.164G10 (Fab, V domains shown)
VH: VQLVESGGGGVVQPGRSLRLSCAASGFTFSSYGMHWVRQAPGKGLEWVAVIWYDGSNKYYADSVKGRFTISRDNSKNTLYLQMNSLRAEDTAVYYCARESTLYSSSWYRRYYYYGMDVWGQGTTVTVSS
VL: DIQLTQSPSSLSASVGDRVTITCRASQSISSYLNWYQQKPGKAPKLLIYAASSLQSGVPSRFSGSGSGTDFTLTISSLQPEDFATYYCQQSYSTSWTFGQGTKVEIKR
notes: as for B2
B4: RhD201.164H12 (Fab, V domains shown)
VH: B3 VH with V1Q, Q2V, L3Q, V4L, E5V, S6E, G7S, G33A, W52S, G115S
VL: EIVLTQSPATLSVSPGERATLSCRASQSVTSNLAWYQQKPGQAPRLLIYGASTRATGVPARFSGSGSGTEFSLTISSLQSEDFAVYYCQQYNNWPPIFTFGPGTKLDIKR
notes: as for B2
B5: RhD157.119D11 (Fab, V domains shown)
VH: EVQLVESGGGLVQPGGSLRLSCVASGFTFRSFDMNWVRQAPGKGLEWVSYINSRGSTIYYADSVKGRFTISRENAKNSLYLQMNSLRAEDTAVYYCARDLYGDYDPKSYYYYGMGVWGQGTTVTVSS
VL: EIVLTQSPATLSLSPGERATLSCRASQSVSSYLAWYQQKRGQAPRLLIFNASNRATGIPARFSGSGSGTDFTLTISSLEPEDFAVYYCQQRSSWPPMYTFGQGTKLEIKR
notes: as for B2
B6: RhD195.127A07 (Fab, V domains shown)
VH: QVQLQESGPGLVKPSQTLSLTCTVSGGSISSGSYYWSWIRQPAGKGPEWIGRIYTSGSTNYNPSLKSRLTISVDTSKNQFSLKLTSVTAADTAVYYCARAPSYYDSSGYRYWYIDLWGRGTLVTVSS
VL: DIQLTQSPSSLSASVGDRVTITCRASQNINRYLNWYQHKPGRAPELLIYAASTLRRGVPSRFSGSGSGTDFTLTISSLQPEDFATYYCQQSYSRGTFGQGTKVEIKR
notes: as for B2
B7: RhD203.179F07 (Fab, V domains shown)
VH: EVQLVESGGGVVQPGRSLRLSCAASGFTFSNYGMHWVRQAPGKGLEWVAVIWYDGSNKYYADSVKGRFTISRDNSKNTLYLQMNSLRAEDTAVYYCAREMVSYSSSWYRRYYYYVMDVWGKGTTVTVSS
VL: QSALTQPASVSGSPGQSITISCTATSSDIGAYNYVSWYQHHPGKAPKVIITDVNKRPSGVPDRFSGSKSGNTASLTISGLQPEDEAEYSCCSYAGTYSYVFGTGTKVTVLS
notes: as for B2
B8: RhD193.126G05 (Fab, V domains shown)
VH: QVQLVETGGGVVQPGRSLRLSCAASGFTFSSYGMHWVRQAPGKGLEWVAVIWYDGSNKDYADPVKGRFTISRDNSKNTLYLQMNSLRAEDTAVYYCAREIASRGYSRYLYYFDSWGQGTLVTVSS
VL: DIQMTQSPSSLSASVGDRVTITCRASQSISSYLNWYQQNPGKAPKLLIYGASNLQSGVPSRFSGSGSGTDFTLTISSLQPEDFATYYCQQSYSTLALTFGGGTKVEIKR
notes: as for B2
B9: RhD297.126E06 (Fab, V domains shown)
VH: B8 VH with T7S, S30R, S31T, P63S, Y80H, F112L, S114F
VL: B8 VL with M4L
notes: as for B2
B10: RhD197.127A08 (Fab, V domains shown)
VH: QVQLVESGGGVVQPGRSLRLSCAASGFTFSNYGMHWVRQAPGKGLEWVAVIWFDGSNRDYADSVKGRFTISRDNSKKTLYLQMNSLRAEDTAVYYCATELARGRLRALEYWGQGTLVTVSS
VL: QTVVTQEPSLTVSPGGTVTLTCASSTGAVTTGYYPNWFQQKPGQAPRALIYSTSKKHSWTPARFSGSLLGGKAALTLSGVQPEDEAEYYCLLFYGGAQLGVFGGGTKLTVLG
notes: as for B1
B11: RhD207.127A11 (Fab, V domains shown)
VH: EVQLVESGGGVVQPGRSLRLSCAASGFTFSSYGMHWVRQAPGKGLEWVAVIWYDGSNKDYVDSVKGRFTISRDNSKNTLYLQMNSLRAEDTAVYYCARELAKGRLRDLDHWGQGTLVTVSS
VL: B10 VL with T2A, I50V, Y51H
notes: as for B2
B12: RhD191.119E08 (Fab, V domains shown)
VH: QVQLVESGGDLVQPGGSLRLSCAASGFTFRSYEMNWVRQAPGKGLEWVSYINSRGNTKYYADSVKGRFTISRDNAKKSLYLQMSSLRAEDTAVYYCARNLFGDYDLKSYYYNAMDVWGQGTLVTVSS
VL: EIVLTQSPGTLSSSPGERATLSCRASQSVTSRYLAWYQQKHGQAPRLLIYGTSTRATGIPDRFSGGGSQTDFTLTISRLEPEDFAVYYCQHYDDSISTYIFGPGTELEIKR
notes: as for B2
B13: RhD202.158E07 (Fab, V domains shown)
VH: QVQLVESGGGVVQPGRSLRLSCAASGFTFSSYGMHWVRQAPGKGLEWVAVIWFDGSNRYYGDSVKGRVTISRDNSKNTLYLRMNSLRAEDTAVYYCAREFYTRSGLWSQGYSYYMDVWGKGTTVTVSS
VL: EIVLTQSPGTLSLSPGERATLSCRASQSVSSSYLAWYQHKPGQAPRLLIYGSSNRATGIPDRFSGSGSGTDFTVTISRLEPEDFAVYYCQQYGTAPYTFGQGTKLEIKR
notes: as for B2
B14: RhD190.119F05 (Fab, V domains shown)
VH: EVQLVETGGGVVQPGRSLRLSCAASGFSFSNYGMHWVRQAPGKGLEWVAVIWFDGSIKYYVDSVKGRFTISRDNSKNTLYLQMNSLRAEETAIYFCARENSVLVPGTIRRRYYLDYWGQGTLVTVSS
VL: DIQLTQSPSSLSASVGDRVTITCRASQSISSYLNWYQQKPGEAPKLLIYVASTLQSGAPSRFSGSGSGTDYTLTISSLQPEDSATFYCQQTYSPPYTFGQGTKLEIKR
notes: as for B2
B15: RhD192.119G06 (Fab, V domains shown)
VH: QVQLVESGGGLVKPGGSLRLSCAASGFTFSSYAMNWVRQAPGKGLEWVSSISGTSSYIYYADSVKGRFTIFRDNAKSSVYLQMNSLRVEDTAVYYCARDRWWGMVRRVFPTYPFDYWGQGTLVTVSS
VL: DIQLTQSPSSVSASVGDRVTITCRASQGINNLLAWYQQKPGKAPKLLIYAASNLQSGVPSRFSGSGSGTDFTLTINSLQPEDFATYYCQQANSFPLTFGGGTKVEIKR
notes: as for B2
B16: RhD194.126G10 (Fab, V domains shown)
VH: QVTLKESGPVLVKPTETLTLTCTVSGFSLSNARMGVSWIRQPPGKALEWLAHIFSNDEKSYSTSLKSRLTISKDTSKSQVVLTMTNMDPVDTATYYCARMRLTMVRGVITYYYYSMDVWGQGTTVTVSS
VL: DIQMTQSPSSLSASVGDRVTITCRASQSISTYLNWYQQKPGKAPKLLIYAASTLQSGVPSRFSGSGSGTHFTLTISSLQREDFATYYCQQTYRTPTWTFGQGTKVEIKR
notes: as for B2
B17: RhD298.126E10 (Fab, V domains shown)
VH: B2 VH with H80Y, L86V, E99D, V100L, G101S, F102T, G103Q, S104R, W106Y, G112V
VL: B16 VL with Y49S, T53S, H70D, F83Y, T85A, T91S, R93S, T96P, W97Y, V105L
notes: as for B2
B18: RhD196.126H11 (Fab, V domains shown)
VH: QVQLVESGGGVVQPGRSLRLSCAASGFTFSSYGMHWVRQAPGKGLEWVAVIWYDGSNKDYADSVKGRFTISRDNSKNTLYLQMNSVRAEDTAVYYCARELSTQRGYSRYHYVMDVWGQGTTVTVSS
VL: B16 VL with T91S, R93G
notes: as for B2
B19: RhD198.127F10 (Fab, V domains shown)
VH: B18 VH with E6Q, R16K, S31T, D59Y, N74T, A88V, E99D, S101T
VL: DIQMTQSPSSLSASVGDRVTITCRASQSIGNYLNWYQQKPGKAPKLLISAASSLQSGVPSRFSGSGSGTDFTLTISSLHREDYATYYCQQSYSTPPYTFGQGTKLEIKR
notes: as for B2

These binders were tested against T1, Rhesus D antigen (assay: agglutination assay, Fab on RhD(+)/RhD(-) RBC mix).
Procedure: After each round of panning single colonies were picked for analysis of their binding properties to red blood cells in agglutination assays. Briefly, single colonies were inoculated into 2×YT/100 μg/mL carbenicillin/1% glucose and shaken overnight at 37° C. The next day, DeepWell plates were inoculated using 900 μl 2×YT/100 μg/mL carbenicillin/0.1% glucose and 10 μl overnight culture. The plates were shaken for two hours at 37° C., before Fab induction was performed with addition of 300 μl 2×YT/100 μg/mL carbenicillin/0.25 mM IPTG per well. The plate was shaken overnight at 30° C. The following day, the bacteria were pelleted by centrifugation (3200×g, 4° C., 10 minutes), and re-suspended in 100 μl of 0.8 M NaCl, 0.2×PBS, 8 mM EDTA, and incubated for 15 minutes on ice in order to perform a periplasmic extraction of the Fab fragments. The plate was transferred to −20° C. and finally the suspension was thawed and centrifugation was performed for 10 minutes at 4° C. and 3200×g. The periplasmic extract was used in ELISA assays for analysis of Fab content and in agglutination assays to evaluate the binding potential of the individual Fab fragments. The agglutination assay was performed as follows: RhD(−) and RhD(+) RBC were mixed in a 1:1 ratio, and washed 3 times in PBS. After the final wash, the cell mix was re-suspended in 1% BSA in PBS at a density of 1% cells, 50 μl was added to each well of a 96-plate. Periplasmic extracts were added to the wells. As a positive control Rhesogamma P immunoglobulin (Aventis) was used according to the manufacturer's instructions. The plates were incubated for one hour at room temperature with gentle shaking. The cells were washed three times with PBS, before the secondary antibody was added (goat anti-human Fab/FITC conjugate, Sigma F5512) in a 1:100 dilution. The plates were left for agglutination for one hour at room temperature without shaking. Fab fragments positive in the agglutination assay was determined by visual inspection, and recorded by taking a picture. Quantization of the binding activity of the Fab fragments was performed by FACS analysis of the agglutination samples.

Binding result, binds:
B1
B2
B3
B4
B5
B6
B7
B8
B9
B10
B11
B12
B13
B14
B15
B16
B17
B18
B19
